Test results as given in patent US20130243753A1 (Genentech, published 2013).

T1: human Tyro3-Fc (human, UniProt Q06418 41-428)
T1 construct: not shown: Fc part not described
T1 sequence (looked up): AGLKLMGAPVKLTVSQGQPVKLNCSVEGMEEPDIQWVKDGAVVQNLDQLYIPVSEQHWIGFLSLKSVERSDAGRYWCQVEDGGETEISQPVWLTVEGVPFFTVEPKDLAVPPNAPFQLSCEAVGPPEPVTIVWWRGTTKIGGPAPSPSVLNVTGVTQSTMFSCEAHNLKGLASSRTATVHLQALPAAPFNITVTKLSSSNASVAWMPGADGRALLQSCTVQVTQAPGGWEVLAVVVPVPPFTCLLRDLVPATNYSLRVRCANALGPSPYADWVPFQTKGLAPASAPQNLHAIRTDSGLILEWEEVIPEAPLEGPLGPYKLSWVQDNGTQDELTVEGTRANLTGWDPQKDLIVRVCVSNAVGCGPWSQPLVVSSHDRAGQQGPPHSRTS

T2: human Mer-Fc (human, UniProt Q12866 26-499)
T2 construct: not shown: Fc part not described
T2 sequence (looked up): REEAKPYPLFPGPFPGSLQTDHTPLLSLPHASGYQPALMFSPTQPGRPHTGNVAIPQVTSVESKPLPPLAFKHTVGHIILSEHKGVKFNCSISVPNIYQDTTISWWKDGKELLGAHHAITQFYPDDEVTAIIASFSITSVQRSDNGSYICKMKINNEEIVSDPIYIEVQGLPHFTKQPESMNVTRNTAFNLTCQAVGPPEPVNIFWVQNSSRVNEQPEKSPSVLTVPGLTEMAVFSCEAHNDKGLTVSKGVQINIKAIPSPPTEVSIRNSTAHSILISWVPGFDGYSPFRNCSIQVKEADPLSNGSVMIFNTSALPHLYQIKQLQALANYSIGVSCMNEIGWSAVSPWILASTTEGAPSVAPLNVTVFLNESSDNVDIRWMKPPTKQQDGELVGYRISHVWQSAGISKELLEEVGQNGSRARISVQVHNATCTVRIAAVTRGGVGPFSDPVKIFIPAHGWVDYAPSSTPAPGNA


What was measured:
human Axl-Fc (human) = human Axl-Fc (human) (UniProt P30530); experiment: competition ELISA; human Axl-Fc captured on anti-human IgG Fc plate, blocked ligand Gas6 detected with biotinylated anti-Gas6 and streptavidin-HRP
human Axl-Fc (human), sequence (P30530 other isoform, or with tags, fused parts or gaps, form in doubt): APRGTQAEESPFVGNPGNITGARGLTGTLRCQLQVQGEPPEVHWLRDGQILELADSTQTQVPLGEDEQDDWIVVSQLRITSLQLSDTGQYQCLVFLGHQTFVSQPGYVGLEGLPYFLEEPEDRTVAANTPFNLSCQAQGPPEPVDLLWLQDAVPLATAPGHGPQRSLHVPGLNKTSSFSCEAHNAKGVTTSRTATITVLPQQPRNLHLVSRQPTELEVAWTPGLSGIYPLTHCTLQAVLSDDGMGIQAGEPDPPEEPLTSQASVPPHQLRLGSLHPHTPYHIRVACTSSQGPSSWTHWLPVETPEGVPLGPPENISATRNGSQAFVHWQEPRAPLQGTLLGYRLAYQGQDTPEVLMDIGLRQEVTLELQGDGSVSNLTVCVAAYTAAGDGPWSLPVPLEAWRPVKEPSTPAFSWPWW

[1] = target: human Axl on the cell surface (HUVEC, A549, H1299, Baf3Axl cells) (human, UniProt P30530 26-894); experiment: FACS on HUVEC; cells treated with antibody, then Gas6; blocked ligand Gas6 detected with biotinylated anti-Gas6 and streptavidin-PE
human Axl on the cell surface (HUVEC, A549, H1299, Baf3Axl cells), sequence (P30530 other isoform, or with tags, fused parts or gaps limits assumed): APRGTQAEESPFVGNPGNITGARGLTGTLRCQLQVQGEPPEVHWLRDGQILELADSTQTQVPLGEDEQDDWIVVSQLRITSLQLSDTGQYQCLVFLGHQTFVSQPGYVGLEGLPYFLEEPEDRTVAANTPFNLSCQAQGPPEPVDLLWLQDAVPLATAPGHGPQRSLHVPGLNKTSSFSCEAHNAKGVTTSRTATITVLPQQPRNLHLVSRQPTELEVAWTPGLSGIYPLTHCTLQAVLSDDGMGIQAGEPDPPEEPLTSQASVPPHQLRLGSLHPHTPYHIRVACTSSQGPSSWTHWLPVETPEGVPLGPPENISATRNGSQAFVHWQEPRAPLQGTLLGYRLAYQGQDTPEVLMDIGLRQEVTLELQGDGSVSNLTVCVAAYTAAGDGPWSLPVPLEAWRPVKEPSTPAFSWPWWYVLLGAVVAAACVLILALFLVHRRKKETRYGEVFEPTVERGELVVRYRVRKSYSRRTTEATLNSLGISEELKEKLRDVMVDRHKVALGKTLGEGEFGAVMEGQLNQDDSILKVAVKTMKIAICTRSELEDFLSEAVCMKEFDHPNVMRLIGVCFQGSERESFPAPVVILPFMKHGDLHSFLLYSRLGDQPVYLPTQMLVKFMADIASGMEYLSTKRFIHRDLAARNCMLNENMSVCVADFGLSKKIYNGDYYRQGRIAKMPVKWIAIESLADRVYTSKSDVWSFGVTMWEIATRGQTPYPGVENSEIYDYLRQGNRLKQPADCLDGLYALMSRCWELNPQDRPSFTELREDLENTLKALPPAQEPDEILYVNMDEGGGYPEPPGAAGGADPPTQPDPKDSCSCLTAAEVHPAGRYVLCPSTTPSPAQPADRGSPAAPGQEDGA

[2] = target: human Axl ECD-His protein (human) (UniProt P30530); experiment: SPR (BIAcore-3000): IgG captured by anti-human IgG, human Axl ECD-His injected
human Tyro3-Fc = target: T1, human Tyro3-Fc; experiment: ELISA; receptor-Fc captured on anti-human IgG Fc coated plate
Description: (§1) Plates were coated with anti-human IgG Fc, and then incubated with human Axl, Mer, Tyro3 Fcs, mouse or cynomolgus AxlFcs. […] FIG. 7D: ELISA. Plates were coated with anti-human IgG Fc and incubated with human Axl-Fc. […] FIG. 7E: FACS. […] A549 cells were incubated with 1 μg/mlYW327.6S2 for indicated time, and cell surface Axl expression was determined by FACS (upper panel), and total protein expression by Western Blotting analysis (lower panel). […] Phosphorylated Axl was measured by ELISA (upper panel), and phosphorylated Akt by Western Blotting analysis (lower panel). […] Cell viability was measured by CellTiter Glo assay.
(§2) ELISA assays were performed as follows: goat anti-human IgG Fc coated plates were blocking with 0.5% BSA, PBS, 0.05% Tween 20 (PBST). For cross reaction assay, coated plates were incubated with human Axl.Fc, mouse Axl.Fc or human Mer.Fc, Tyro-3.Fc for 1 hr at room temperature, washed four times in PBST, incubated with anti-Axl mAbs and HRP-conjugated anti-mouse Ig. […] Plates were washed four times in PBST, incubated with biotinylated anti-mGas6 and strepavidin-HRP. Secreted Ang-2 and DKK3 was measured using R&D ELISA kit, according to the manufacturer's instruction.

human Mer-Fc = target: T2, human Mer-Fc; experiment: as above
Description: as §1, §2

[3] = target: T3, murine Axl ECD-Fc fusion protein (murine; human, UniProt Q00993 19-445); experiment: SPR (BIAcore-3000): murine Axl ECD-Fc captured by anti-human IgG, anti-Axl Fab injected
T3 construct: extracellular domain; also called murine Axl ECD human IgG fusion protein; mouse Axl.Fc; not shown: human IgG Fc
T3 sequence (Q00993 19-445): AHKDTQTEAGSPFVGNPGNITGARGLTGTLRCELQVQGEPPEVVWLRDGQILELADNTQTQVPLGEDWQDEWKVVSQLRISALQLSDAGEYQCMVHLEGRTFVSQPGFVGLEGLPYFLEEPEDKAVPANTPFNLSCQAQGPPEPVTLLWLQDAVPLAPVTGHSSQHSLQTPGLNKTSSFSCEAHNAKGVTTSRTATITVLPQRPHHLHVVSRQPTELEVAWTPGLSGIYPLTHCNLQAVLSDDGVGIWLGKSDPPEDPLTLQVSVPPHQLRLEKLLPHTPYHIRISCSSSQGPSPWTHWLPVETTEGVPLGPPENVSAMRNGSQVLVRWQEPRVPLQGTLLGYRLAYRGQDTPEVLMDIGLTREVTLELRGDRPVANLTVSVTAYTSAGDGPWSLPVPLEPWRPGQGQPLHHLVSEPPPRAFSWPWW
Description: Association rates (kₒₙ) and dissociation rates (koff) were calculated using a simple one-to-one Langmuir binding model (BIAcore Evaluation Software version 3.2).

Row | Binder | IC50 (read off the curve) (human Axl-Fc (human)) | IC50 (read off the curve) [1] | Kd [2] | binding result (human Tyro3-Fc) | binding result (human Mer-Fc) | Kd [3]
1 | Affinity matured Axl mAb YW327.6S2 (full-length human IgG) (antibody, V domains shown, No sentence ties these to this name, so they are not used; also called YW327.652) VH: EVQLVESGGGLVQPGGSLRLSCAASGFSLSGSWIHWVRQAPGKGLEWVGWINPYRGYAYYADSVKGRFTISADTSKNTAYLQMNSLRAEDTAVYYCAREYSGWGGSSVGYAMDYWGQGTLVTVSS VL: DIQMTQSPSSLSASVGDRVTITCRASQDVSTAVAWYQQKPGKAPKLLIYSASFLYSGVPSRFSGSGSGTDFTLTISSLQPEDFATYYCQQSYTTPPTFGQGTKVEIK | 0.02 µg/mL | ~0.1 µg/mL | 1 nM | no binding (tested: concentration not shown) | no binding (tested: concentration not shown) | 
2 | YW327.6S2 Fab fragment (Fab, V domains shown, The result sentence names only the mAb; also called anti-Axl Fab fragment; YW327.652) VH: EVQLVESGGGLVQPGGSLRLSCAASGFSLSGSWIHWVRQAPGKGLEWVGWINPYRGYAYYADSVKGRFTISADTSKNTAYLQMNSLRAEDTAVYYCAREYSGWGGSSVGYAMDYWGQGTLVTVSS VL: DIQMTQSPSSLSASVGDRVTITCRASQDVSTAVAWYQQKPGKAPKLLIYSASFLYSGVPSRFSGSGSGTDFTLTISSLQPEDFATYYCQQSYTTPPTFGQGTKVEIK |  |  |  |  |  | 0.545 nM
